The target in one assay is T1, NS3/4A(1-631)/4A(1-54) (Hepatitis C virus genotype 1a, UniProt P27958).
T1 construct: a noncovalent complex between NS4A (54 residues) and NS3 (631 residues); histidine tag (N, cleaved yes); made in house; host or cells: baculovirus system / insect cells
As to the kind of experiment: Cleavage efficiency of nitrophenyl and other ester based chromogenic substrates, spectrophotometric. It counts as biochemical, HCV 1a(H). The note with it: 25 mM MOPS pH 6.5, 10% glycerol, 0.15 M NaCl, 0.2% lauryl maltoside. Here is the method: The chromogenic substrates defined by SEQ ID NOs: 5-13 were synthetically produced as described above and tested for cleavage efficiency in 25 mM MOPS buffer, pH 6.5, containing 10% (v/v) glycerol, 0.15 M NaCl, 0.2% lauryl maltoside. The substrates were cleaved by NS3/4A(1-631)/4A(1-54) (see Example 1). The rate of product formation was monitored by a spectrophotometer, at 400 nm for 4Np, 370 nm for PAP, and 340 nm for 3Np and HMC.

The target in assay [1] is (Ac-)[…]-(2-Cl-4-nitroanilide) (HCV).
Assay [2] deals with Ac-DTEDVVA(Nva)-O-3Np (HCV).
The target of assay [3] is Ac-DTEDVVA(Nva)-O-4Np (HCV).
For assay [4], the target named is Ac-DTEDVVA(Nva)-O-HMC (HCV).
The target in assay [5] is Ac-DTEDVVA(Nva)-O-PAP (HCV).
Assay [6] concerns the target Ac-DTEDVVP(Nva)-O-HMC (HCV).
In assay [7] the target is Ac-DTEDVVP(Nva)-O-PAP (HCV).
For assay [8], the target named is biotinylated amide substrates.
For assay [9], the target named is biotinylated ester substrate.

Values joined by “and” are separate entries in the source; they are usually repeats but may differ in a detail not shown here. Equal entries are not always repeated. Square brackets hold non-standard residues; d marks the D form. Peptide text beside a SMILES is read from it. * marks the point of attachment. ONp = O=[N+]([O-])c1ccc(O*)cc1; X2 = c1ccc(N=Nc2ccc(O*)cc2)cc1; X3 = O=[N+]([O-])c1cccc(O*)c1; X1 = Cc1cc(=O)oc2cc(O*)ccc12; Nva = CCC[C@H](N)C(=O)O

In patent US6251583A, “Peptide substrates for HCV NS3 protease assays” (Schering Corporation, priority 1999, dated 2001) one finds Km, kcat/Km and catalytic efficiency data, which are given here for 7 molecules.

With `CCC[C@H](NC(=O)[C@H](C)NC(=O)[C@@H](NC(=O)[C@@H](NC(=O)[C@H](CC(=O)O)NC(=O)[C@H](CCC(=O)O)NC(=O)[C@@H](NC(=O)[C@H](CC(=O)O)NC(C)=O)[C@@H](C)O)C(C)C)C(C)C)C(=O)Oc1cccc([N+](=O)[O-])c1` [Ac-DTEDVVA(Nva)-O-3Np] (Ac-DTEDVVA[Nva]-X3), the Km (usually the substrate concentration at which the rate is half of its maximum) at NS3/4A(1-631)/4A(1-54) is 48 µM.
As to `CCC[C@H](NC(=O)[C@H](C)NC(=O)[C@@H](NC(=O)[C@@H](NC(=O)[C@H](CC(=O)O)NC(=O)[C@H](CCC(=O)O)NC(=O)[C@@H](NC(=O)[C@H](CC(=O)O)NC(C)=O)[C@@H](C)O)C(C)C)C(C)C)C(=O)Oc1ccc([N+](=O)[O-])cc1` [Ac-DTEDVVA(Nva)-O-4Np] (Ac-DTEDVVA[Nva]-ONp), the Michaelis-Menten constant (Km) on NS3/4A(1-631)/4A(1-54) came to 16 µM.
Consider `CCC[C@H](NC(=O)[C@H](C)NC(=O)[C@@H](NC(=O)[C@@H](NC(=O)[C@H](CC(=O)O)NC(=O)[C@H](CCC(=O)O)NC(=O)[C@@H](NC(=O)[C@H](CC(=O)O)NC(C)=O)[C@@H](C)O)C(C)C)C(C)C)C(=O)Oc1ccc2c(C)cc(=O)oc2c1` [Ac-DTEDVVA(Nva)-O-HMC] (Ac-DTEDVVA[Nva]-X1), for which, on NS3/4A(1-631)/4A(1-54), the Michaelis constant (Km) was 20 µM.
`CCC[C@H](NC(=O)[C@H](C)NC(=O)[C@@H](NC(=O)[C@@H](NC(=O)[C@H](CC(=O)O)NC(=O)[C@H](CCC(=O)O)NC(=O)[C@@H](NC(=O)[C@H](CC(=O)O)NC(C)=O)[C@@H](C)O)C(C)C)C(C)C)C(=O)Oc1ccc(N=Nc2ccccc2)cc1` [Ac-DTEDVVA(Nva)-O-PAP] (Ac-DTEDVVA[Nva]-X2): on NS3/4A(1-631)/4A(1-54), the Km came to 17 µM.
Still for that read-out and setting: for `CCC[C@H](NC(=O)[C@@H]1CCCN1C(=O)[C@@H](NC(=O)[C@@H](NC(=O)[C@H](CC(=O)O)NC(=O)[C@H](CCC(=O)O)NC(=O)[C@@H](NC(=O)[C@H](CC(=O)O)NC(C)=O)[C@@H](C)O)C(C)C)C(C)C)C(=O)Oc1ccc2c(C)cc(=O)oc2c1` [Ac-DTEDVVP(Nva)-O-HMC] (Ac-DTEDVVP[Nva]-X1) the value was 40 µM; for `CCC[C@H](NC(=O)[C@@H]1CCCN1C(=O)[C@@H](NC(=O)[C@@H](NC(=O)[C@H](CC(=O)O)NC(=O)[C@H](CCC(=O)O)NC(=O)[C@@H](NC(=O)[C@H](CC(=O)O)NC(C)=O)[C@@H](C)O)C(C)C)C(C)C)C(=O)Oc1ccc(N=Nc2ccccc2)cc1` [Ac-DTEDVVP(Nva)-O-PAP] (Ac-DTEDVVP[Nva]-X2), 18 µM.
Regarding “HCV NS3(1-631)/4A(1-54) protease, non-covalent complex of full-length HCV 1a(H) NS3 with amino acids (enzyme)”, the kcat/Km (in general, the second-order rate constant that governs catalysis at low substrate concentration) is 10 M⁻¹ s⁻¹ in [1]; 15 M⁻¹ s⁻¹ and 45 M⁻¹ s⁻¹ with …-(4-nitroanilide) (HCV); 7300 M⁻¹ s⁻¹ in assay [2]; 38000 M⁻¹ s⁻¹ in assay [3]; 8400 M⁻¹ s⁻¹ in [4]; 4000 M⁻¹ s⁻¹ in assay [5]. The catalytic efficiency (kcat/Km) in [6] came out at 8400 M⁻¹ s⁻¹; in [7], 13000 M⁻¹ s⁻¹; in the assay with Ac-[…](Nva)-O-4Np (HCV) it was 25000 M⁻¹ s⁻¹; in assay […](Nva)-O-3Np (HCV) it was 11100 M⁻¹ s⁻¹. Moreover, the catalytic efficiency in [8] was less than 30000 M⁻¹ s⁻¹; in assay [9] it was less than 460000 M⁻¹ s⁻¹.
